The values below come from patent publication US6635421 (CHILDREN S MEDICAL CENTER, dated 2003).

For assay [1], the target named is T1, Human VEGF165R/NP-1 (VEGF165 receptor / neuropilin-1) (human, UniProt O14786 22-923).
T1 construct: 923 amino acid open reading frame; also called clone A2
Briefly: cross-linking of 125I-VEGF121 to PAE/NP-1 cells, SDS-PAGE, autoradiography. The method, then:
The binding was carried out in the presence of 1 μg/ml heparin. […] The cells were lysed and proteins were resolved by 6% SDS-PAGE. The polyacrylamide gel was dried and exposed to X-ray film.

Assay [2] deals with T2, Human NP-2 (neuropilin-2) (human, UniProt O60462 21-931).
T2 sequence: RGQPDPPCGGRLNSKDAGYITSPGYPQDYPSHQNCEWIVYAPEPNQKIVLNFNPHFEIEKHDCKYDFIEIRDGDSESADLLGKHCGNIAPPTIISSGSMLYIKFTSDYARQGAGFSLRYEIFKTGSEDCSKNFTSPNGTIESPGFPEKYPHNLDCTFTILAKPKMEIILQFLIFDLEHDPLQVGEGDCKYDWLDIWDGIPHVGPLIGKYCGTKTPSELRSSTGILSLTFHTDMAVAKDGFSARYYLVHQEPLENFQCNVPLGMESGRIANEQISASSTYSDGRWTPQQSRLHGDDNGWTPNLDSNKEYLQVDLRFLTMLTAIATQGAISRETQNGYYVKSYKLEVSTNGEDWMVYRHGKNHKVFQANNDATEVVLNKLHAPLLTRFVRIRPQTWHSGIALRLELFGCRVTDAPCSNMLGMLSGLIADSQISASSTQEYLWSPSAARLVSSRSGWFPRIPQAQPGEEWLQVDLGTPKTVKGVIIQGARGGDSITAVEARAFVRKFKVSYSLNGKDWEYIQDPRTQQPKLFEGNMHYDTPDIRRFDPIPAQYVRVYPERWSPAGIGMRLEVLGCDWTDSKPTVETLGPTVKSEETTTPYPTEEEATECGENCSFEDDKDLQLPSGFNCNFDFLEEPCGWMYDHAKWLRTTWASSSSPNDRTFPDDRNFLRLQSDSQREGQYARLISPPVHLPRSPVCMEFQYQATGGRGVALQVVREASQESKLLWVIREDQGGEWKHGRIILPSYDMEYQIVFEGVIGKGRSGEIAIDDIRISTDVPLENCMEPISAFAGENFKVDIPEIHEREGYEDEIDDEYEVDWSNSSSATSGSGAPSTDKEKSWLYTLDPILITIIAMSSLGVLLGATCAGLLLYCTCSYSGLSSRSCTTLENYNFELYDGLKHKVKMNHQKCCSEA
Put plainly: expression cloning: COS-7 cells transfected with single clones screened for 125I-VEGF165 binding (seven positive clones, one of them NP-2).
Experimental: The E. coli were sub-divided into 50 separate pools and plated onto 50 LB ampicillin dishes, with each pool representing approximately 100 clones. […] The seven positive plasmid clones were amplified and their DNA was analyzed by restriction enzyme digestion. […] One clone from each group was submitted for automated DNA sequencing.

The target of assay [3] is T1, Human VEGF165R/NP-1 (VEGF165 receptor / …). Briefly: Scatchard analysis (LIGAND program) of 125I-VEGF165 binding to PAE/NP-1 cells.
The target is the same in assay [4]. Briefly: Scatchard analysis of 125I-VEGF165 binding to independently generated PAE/NP-1 clones.
Assay [5] has the same target. Briefly: cell-based or functional assay.

B1: Human recombinant VEGF121 (ligand, UniProt P15692-9 27-147, looked up)
chain: APMAEGGGQNHHEVVKFMDVYQRSYCHPIETLVDIFQEYPDEIEYIFKPSCVPLMRCGGCCNDEGLECVPTEESNITMQIMRIKPHQGQHIGEMSFLQHNKCECRPKKDRARQEKCDKPRR
modifications: radio-iodinated (125I, IODO-BEADS)
notes: mature
For the molecule B1, the binding result in assay [1] is recorded as “no binding (tested: 10 ng/ml)”.

B2: Human recombinant VEGF165 (ligand, UniProt P15692-4 27-191, looked up)
chain: APMAEGGGQNHHEVVKFMDVYQRSYCHPIETLVDIFQEYPDEIEYIFKPSCVPLMRCGGCCNDEGLECVPTEESNITMQIMRIKPHQGQHIGEMSFLQHNKCECRPKKDRARQENPCGPCSERRKHLFVQDPQTCKCSCKNTDSRCKARQLELNERTCRCDKPRR
modifications: radio-iodinated (125I, IODO-BEADS) in the binding and cross-linking experiments; unlabelled when coupled to Sepharose or used as competitor
notes: mature
As to B2, the binding result in assay [2] is listed as “binds”. Also, the Kd in assay [3] turned out to be 0.32 nM; in assay [4], 0.3 nM. Besides, the “231 breast carcinoma cell motility (Boyden chamber motility assay)” value in assay [5] is 2 fold.

As a reminder, the Kd is the constant that tells how readily two partners part at equilibrium. A lower Kd goes with a tighter complex.
